From US20100061979A1

How the values were obtained:
FGF-2 [1] = target: FGF-2 (UniProt P09038); assay: BIAcore, two-state reaction with conformation change model
FGF-2 [2] = target: FGF-2 (UniProt P09038); assay: BIAcore

UniProt P09038, sequence (P09038 143-288 limits assumed): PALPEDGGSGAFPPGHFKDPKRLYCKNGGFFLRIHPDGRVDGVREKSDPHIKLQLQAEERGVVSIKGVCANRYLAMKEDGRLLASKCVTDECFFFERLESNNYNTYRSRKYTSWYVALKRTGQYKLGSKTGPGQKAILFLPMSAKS

For “sFGFR2-Fc variant 4493 (no Ig-like domain 1) (from UniProt P21802 126-377) (Fc fusion)”, the Kd (FGF-2 [1]) was 1.19 nM and the Kd (FGF-2 [2]) was 1.19 nM.
